According to publication PMC6599135, “Atomic view into Plasmodium actin polymerization, ATP hydrolysis, and fragmentation” (PLoS Biology, 2019):

Target: the molecule itself
Experiment: negative-stain electron microscopy of polymerised samples; polymerised 16 h at 298 K at 20 uM in F buffer without jasplakinolide, diluted to 1 uM, stained with 2% uranyl acetate

B1: Plasmodium falciparum actin I, wild type (natural protein)
chain: not shown
notes: Plasmodium falciparum actin I; His74 is not methylated in the recombinant protein; In the pyrene assay about 10% of the actin carried N-(1-pyrene)iodoacetamide; also called PfActI; P. falciparum actin I; source: insect cells, purified (Ni-NTA, TEV cleavage, second Ni-NTA, Superdex 200 gel filtration)
B1: binds.
